Source: ChEMBL document CHEMBL1145182, “Molecular dynamics simulations of the TEM-1 beta-lactamase complexed with cephalothin” (J Med Chem, 2005)

Tests used:
[1] = substrate: CC(=O)OCC1=C(C(=O)O)N2C(=O)[C@@H](NC(=O)Cc3cccs3)[C@H]2SC1; experiment: (§1) Binding affinity for TEM-1 beta-lactamase; settings: Escherichia coli
[2] = substrate: CC1(C)S[C@@H]2[C@H](NC(=O)Cc3ccccc3)C(=O)N2[C@H]1C(=O)O; experiment: as §1; settings: Escherichia coli

B1: Beta-lactamase TEM (Escherichia coli), P62593 (protein)
chain: MSIQHFRVALIPFFAAFCLPVFAHPETLVKVKDAEDQLGARVGYIELDLNSGKILESFRPEERFPMMSTFKVLLCGAVLSRVDAGQEQLGRRIHYSQNDLVEYSPVTEKHLTDGMTVRELCSAAITMSDNTAANLLLTTIGGPKELTAFLHNMGDHVTRLDRWEPELNEAIPNDERDTTMPAAMATTLRKLLTGELLTLASRQQLIDWMEADKVAGPLLRSALPAGWFIADKSGAGERGSRGIIAALGPDGKPSRIVVIYTTGSQATMDERNRQIAEIGASLIKHW
For B1, the Km [1] was 347 µM and the Km [2] was 75 µM.
